Assay results: paper PMC10397247
Each block holds one binder with its values, some of them ahead of it.

What was measured:
Assay in all cases: two-hybrid library CCNG1;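 note: natural log of median RNA to DNA barcode read ratio; higher means stronger binding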
4H967-bA = biological target: T1, 4H967-bA
T1 chain: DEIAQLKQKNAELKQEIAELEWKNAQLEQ

4H462-bA = biological target: T2, 4H462-bA
T2 chain: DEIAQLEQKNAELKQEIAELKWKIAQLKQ

4H883-bA = biological target: T3, 4H883-bA
T3 chain: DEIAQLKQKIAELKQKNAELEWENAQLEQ

4H3782-bA = biological target: T4, 4H3782-bA
T4 chain: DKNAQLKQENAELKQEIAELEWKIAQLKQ

4H717-bA = biological target: T5, 4H717-bA
T5 chain: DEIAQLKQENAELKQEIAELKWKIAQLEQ

4H953-bA = biological target: T6, 4H953-bA
T6 chain: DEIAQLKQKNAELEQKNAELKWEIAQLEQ

4H918-bA = biological target: T7, 4H918-bA
T7 chain: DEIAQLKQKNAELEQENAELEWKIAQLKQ

4H568-bA = biological target: T8, 4H568-bA
T8 chain: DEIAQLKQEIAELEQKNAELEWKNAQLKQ

4H3855-bA = biological target: T9, 4H3855-bA
T9 chain: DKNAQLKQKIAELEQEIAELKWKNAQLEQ

4H3057-bA = biological target: T10, 4H3057-bA
T10 chain: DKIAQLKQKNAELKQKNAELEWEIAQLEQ

4H687-bA = biological target: T11, 4H687-bA
T11 chain: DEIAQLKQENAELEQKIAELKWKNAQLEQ

4H338-bA = biological target: T12, 4H338-bA
T12 chain: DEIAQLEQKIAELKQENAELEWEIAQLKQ

4H454-bA = biological target: T13, 4H454-bA
T13 chain: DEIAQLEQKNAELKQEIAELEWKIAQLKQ

4H607-bA = biological target: T14, 4H607-bA
T14 chain: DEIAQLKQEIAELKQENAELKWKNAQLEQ

4H908-bA = biological target: T15, 4H908-bA
T15 chain: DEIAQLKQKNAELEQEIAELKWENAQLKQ

4H2729-bA = biological target: T16, 4H2729-bA
T16 chain: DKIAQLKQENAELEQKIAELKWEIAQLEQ

4H3189-bA = biological target: T17, 4H3189-bA
T17 chain: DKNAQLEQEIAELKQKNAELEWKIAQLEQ

4H754-bA = biological target: T18, 4H754-bA
T18 chain: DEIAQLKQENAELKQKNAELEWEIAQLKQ

4H4001-bA = biological target: T19, 4H4001-bA
T19 chain: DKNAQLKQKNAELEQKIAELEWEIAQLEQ

4H2717-bA = biological target: T20, 4H2717-bA
T20 chain: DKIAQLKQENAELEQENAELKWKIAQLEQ

4H2576-bA = biological target: T21, 4H2576-bA
T21 chain: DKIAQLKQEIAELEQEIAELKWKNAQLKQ

4H331-bA = biological target: T22, 4H331-bA
T22 chain: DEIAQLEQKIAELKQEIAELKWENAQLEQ

4H3427-bA = biological target: T23, 4H3427-bA
T23 chain: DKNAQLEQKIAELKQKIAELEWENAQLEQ

4H2667-bA = biological target: T24, 4H2667-bA
T24 chain: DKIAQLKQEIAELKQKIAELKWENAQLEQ

4H3185-bA = biological target: T25, 4H3185-bA
T25 chain: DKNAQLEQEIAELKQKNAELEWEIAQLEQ

4H2618-bA = biological target: T26, 4H2618-bA
T26 chain: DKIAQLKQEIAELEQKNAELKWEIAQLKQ

4H370-bA = biological target: T27, 4H370-bA
T27 chain: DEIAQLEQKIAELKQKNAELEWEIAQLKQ

4H3606-bA = biological target: T28, 4H3606-bA
T28 chain: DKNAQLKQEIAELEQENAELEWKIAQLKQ

4H3354-bA = biological target: T29, 4H3354-bA
T29 chain: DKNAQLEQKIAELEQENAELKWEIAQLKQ

4H2610-bA = biological target: T30, 4H2610-bA
T30 chain: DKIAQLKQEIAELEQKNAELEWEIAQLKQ

4H72-bA = biological target: T31, 4H72-bA
T31 chain: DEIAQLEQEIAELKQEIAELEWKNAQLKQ

4H797-bA = biological target: T32, 4H797-bA
T32 chain: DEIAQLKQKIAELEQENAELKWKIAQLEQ

4H3843-bA = biological target: T33, 4H3843-bA
T33 chain: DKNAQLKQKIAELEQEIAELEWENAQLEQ

4H3112-bA = biological target: T34, 4H3112-bA
T34 chain: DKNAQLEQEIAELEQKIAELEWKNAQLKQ

4H2760-bN = biological target: T35, 4H2760-bN
T35 chain: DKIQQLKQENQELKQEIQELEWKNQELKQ

4H2697-bA = biological target: T36, 4H2697-bA
T36 chain: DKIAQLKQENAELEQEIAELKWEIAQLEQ

P9A-bA = biological target: T37, P9A-bA
T37 chain: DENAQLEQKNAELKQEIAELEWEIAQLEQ

P6A-bA = biological target: T38, P6A-bA
T38 chain: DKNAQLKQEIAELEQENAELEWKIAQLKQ

P8A-bA = biological target: T39, P8A-bA
T39 chain: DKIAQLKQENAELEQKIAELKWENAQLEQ

P4A-bA = biological target: T40, P4A-bA
T40 chain: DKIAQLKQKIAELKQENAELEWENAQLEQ

P7A-bA = biological target: T41, P7A-bA
T41 chain: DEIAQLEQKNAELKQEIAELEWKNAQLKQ

P5A-bA = biological target: T42, P5A-bA
T42 chain: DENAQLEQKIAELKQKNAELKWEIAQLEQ

interaction score (4H967-bA): 1.25 | interaction score (4H462-bA): 0.799 | interaction score (4H883-bA): 0.662 | interaction score (4H3782-bA): 0.345 | interaction score (4H717-bA): -1.01 | interaction score (4H953-bA): 0.283 | interaction score (4H918-bA): -0.646 | interaction score (4H568-bA): -0.232 | interaction score (4H3855-bA): 0.525 | interaction score (4H3057-bA): 1.74 | interaction score (4H687-bA): -0.678 | interaction score (4H338-bA): 0.28 | interaction score (4H454-bA): 0.611 | interaction score (4H607-bA): -0.213 | interaction score (4H908-bA): 0.163 | interaction score (4H2729-bA): 1.22 | interaction score (4H3189-bA): -0.652 | interaction score (4H754-bA): -0.459 | interaction score (4H4001-bA): 1.77 | interaction score (4H2717-bA): -1.39 | interaction score (4H2576-bA): 1.66 | interaction score (4H331-bA): 1.26 | interaction score (4H3427-bA): 1.64 | interaction score (4H2667-bA): 0.89 | interaction score (4H3185-bA): -1.6 | interaction score (4H2618-bA): -0.0165 | interaction score (4H370-bA): 1.32 | interaction score (4H3606-bA): -0.614 | interaction score (4H3354-bA): -0.69 | interaction score (4H2610-bA): -0.116 | interaction score (4H72-bA): 1.49 | interaction score (4H797-bA): -0.381 | interaction score (4H3843-bA): 2.1 | interaction score (4H3112-bA): 0.265 | interaction score (4H2760-bN): 0.547 | interaction score (4H2697-bA): 0.599
Binder: DKIAQLKQEIAELEQEIAELKWKNAQLKQ [4H2576-bA]

interaction score (P9A-bA): -0.899 | interaction score (P6A-bA): -2.07 | interaction score (P8A-bA): -0.955 | interaction score (P4A-bA): -0.883 | interaction score (P7A-bA): -1.25 | interaction score (P5A-bA): -1.23
Binder: DKIAQLKQKIAELKQENAELEWENAQLEQ [P4A-bA]
